This note sets out measurements from paper PMC9574477 (Science (New York, N.Y.), 2022).

For test [1], the target named is ACKR3 wild type, expressed in cells for the NanoBiT β-arrestin recruitment assay (UniProt P25106).
Test [2] deals with ACKR3 wild type, Tango assay construct (UniProt P25106).
The target of test [3] is ACKR3 wild type, expressed in cells for the NanoBiT β-arrestin recruitment assay (UniProt P25106 1-362). Kind of test: cell-based or functional assay.
Sequence of ACKR3 wild type, expressed in cells for the NanoBiT β-arrestin recruitment assay (UniProt P25106 1-362) (P25106 whole entry): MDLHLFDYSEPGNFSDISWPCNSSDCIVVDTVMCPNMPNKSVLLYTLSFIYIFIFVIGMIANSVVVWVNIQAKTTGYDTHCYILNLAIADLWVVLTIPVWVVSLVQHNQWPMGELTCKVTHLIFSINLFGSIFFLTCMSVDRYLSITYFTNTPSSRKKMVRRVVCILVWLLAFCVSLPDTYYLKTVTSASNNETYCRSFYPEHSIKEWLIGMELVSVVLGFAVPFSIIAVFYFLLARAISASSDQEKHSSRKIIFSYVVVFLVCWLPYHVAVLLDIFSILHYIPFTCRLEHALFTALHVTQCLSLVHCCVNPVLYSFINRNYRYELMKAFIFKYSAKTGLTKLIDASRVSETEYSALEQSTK

Sequence of ACKR3 wild type, expressed in cells for the NanoBiT β-arrestin recruitment assay (UniProt P25106) (P25106 whole entry): as above
Sequence of ACKR3 wild type, Tango assay construct (P25106 whole entry): as above

In the case of “CXCL12 (from UniProt P48061 22-93) (ligand)”, in test [1], the β-arrestin-2 recruitment to ACKR3, NanoBiT, EC50 amounted to 0.75 nM. In addition, the β-arrestin-2 recruitment to ACKR3, Tango assay, EC50 in test [2] amounted to 3.9 nM.

B1: LIH383 (peptide)
peptide: FGGFMRRK
On to B1, for which the “β-arrestin-2 recruitment to ACKR3, NanoBiT, EC50” value in test [3] was determined as 4.8 nM.
